Laboratory results as given in patent US20150322137A1 (EVEC, published 2015).

Columns and labels:
Assay in all cases: cell-based or functional assay
[1] = biological target: T1, F protein of human metapneumovirus strain JPS05-21 (type B2), on infectious virus (human metapneumovirus, strain JPS05-21 …)
[2] = biological target: T2, F protein of human metapneumovirus strain JPS03-178 (type A2), on infectious virus (human metapneumovirus, strain JPS03-178 …)
[3] = biological target: T3, F protein of human metapneumovirus strain JPS02-76 (type B1), on infectious virus (human metapneumovirus, strain JPS02-76 …, UniProt Q6WB98 19-539)
[4] = biological target: T4, F protein of human metapneumovirus strain JPS03-180 (type A1), on infectious virus (human metapneumovirus, strain JPS03-180 …)
[5] = biological target: T1, F protein of human metapneumovirus …; remark: listed apart in the source
[6] = biological target: T2, F protein of human metapneumovirus …; remark: listed apart in the source
[7] = biological target: T4, F protein of human metapneumovirus …; remark: listed apart in the source
[8] = biological target: T1, F protein of human metapneumovirus …; remark: listed apart in the source
[9] = biological target: T3, F protein of human metapneumovirus …; remark: listed apart in the source
[10] = biological target: T4, F protein of human metapneumovirus …; remark: listed apart in the source
[11] = biological target: T1, F protein of human metapneumovirus …; remark: listed apart in the source
[12] = biological target: T2, F protein of human metapneumovirus …; remark: listed apart in the source
[13] = biological target: T3, F protein of human metapneumovirus …; remark: listed apart in the source
[14] = biological target: T4, F protein of human metapneumovirus …; remark: listed apart in the source
[15] = biological target: T3, F protein of human metapneumovirus …; remark: listed apart in the source

| Binder | IC60, neutralizing activity (hMPV infection of LLC-MK2 cells; GraphPad Prism 6) [1] | IC60, neutralizing activity (hMPV infection of LLC-MK2 cells; GraphPad Prism 6) [2] | IC60, neutralizing activity (hMPV infection of LLC-MK2 cells; GraphPad Prism 6) [3] | IC60, neutralizing activity (hMPV infection of LLC-MK2 cells; GraphPad Prism 6) [4] | IC50, neutralizing activity (hMPV infection of LLC-MK2 cells; GraphPad Prism 6) [5] | IC50, neutralizing activity (hMPV infection of LLC-MK2 cells; GraphPad Prism 6) [6] | IC50, neutralizing activity (hMPV infection of LLC-MK2 cells; GraphPad Prism 6) [7] | IC50, neutralizing activity (hMPV infection of LLC-MK2 cells) [8] | IC50, neutralizing activity (hMPV infection of LLC-MK2 cells) [9] | IC50, neutralizing activity (hMPV infection of LLC-MK2 cells) [10] | IC90, neutralizing activity (hMPV infection of LLC-MK2 cells; GraphPad Prism 6) [11] | IC90, neutralizing activity (hMPV infection of LLC-MK2 cells; GraphPad Prism 6) [12] | IC90, neutralizing activity (hMPV infection of LLC-MK2 cells; GraphPad Prism 6) [13] | IC90, neutralizing activity (hMPV infection of LLC-MK2 cells; GraphPad Prism 6) [14] | IC50, cell-to-cell spread inhibitory activity (LLC-MK2 cells stably expressing TMPRSS2) [15] | IC90, cell-to-cell spread inhibitory activity (LLC-MK2 cells stably expressing TMPRSS2) [15] |
| --- | --- | --- | --- | --- | --- | --- | --- | --- | --- | --- | --- | --- | --- | --- | --- | --- |
| EV046143 (antibody, human IgG1, kappa, V domains shown) VH: QVQLVQSGAEVQKPGSSVKVSCKTSGDTFNNYALSWVRQAPGQGPEWMGRIIPLVEMANYAQKFQGRVTITADKSTTTIYMELSSLRSEDTAMYYCARDGYQGGFPYFFDSWGQGTLVTVSS VL: EVVLTQSPGTLSLSPGERATLSCRASQSVSNYLAWYQQKPGQAPRLLISAASSRATGIPDRFGGSGSGADFTLTISRLEPEDFAVYYCQQYGFSPGTFGQGTKVEIRR | 0.363 µg/mL | 0.0266 µg/mL | 0.627 µg/mL | 0.186 µg/mL | 0.272 µg/mL | 0.0198 µg/mL | 0.157 µg/mL | 0.27 µg/mL | 0.46 µg/mL | 0.13 µg/mL | 1.29 µg/mL | 0.0967 µg/mL | 0.735 µg/mL | 0.402 µg/mL | 0.0572 µg/mL | 0.886 µg/mL |
| EV046142 (antibody, human IgG1, lambda, V domains shown) VH: QVQLVQSGAEVKKPGSSVRVSCKASGGTFSTYGINWVRQARGQGLEWMGTVIPTFEKTYYAQGFQGRVTIAADGSKNTVYMELRRLTSEDSAIYFCTRFFTPYCSGGSCYLDLWGPGTLVTVSS VL: QSVLTQPPSVSGAPGQSVTISCAGSSSNIGAGYDVHWYQHLPGTAPRLLIYSNTNRPSGVPDRFSGSKSGASASLAITGLQAEDEADYYCQSYDSGVVFGGGTKLTVLR | 0.366 µg/mL | 0.0971 µg/mL | 0.641 µg/mL | 0.243 µg/mL | 0.273 µg/mL | 0.0614 µg/mL | 0.212 µg/mL | 0.22 µg/mL | 0.42 µg/mL | 0.22 µg/mL | 1.35 µg/mL | 0.738 µg/mL | 1.57 µg/mL | 0.443 µg/mL | 0.0123 µg/mL | 0.0664 µg/mL |
| EV046147 (antibody, human IgG1, lambda, V domains shown) VH: QVQLVQSGAEVKKPGASVKVSCKASGYTFSVYGISWVRQAPGHGLEWMGWISAYNGDRGYAQKVQGRITMTTDTSASTAYMELRSLTSDDTAVYYCATTSSGVPGIYWGQGSLVTVSS VL: SYALVQPPSVSVSPGQTARITCFGPALPKKYAYWYQHKSGQAPMLVIYEDTKRPSGIPQRFSGSTSGATATLTIRGAQVEDEADYYCYSTDSSGHERVFGGGTKLTVLG | 0.298 µg/mL | 2.06 µg/mL | 0.514 µg/mL | 0.406 µg/mL | 0.253 µg/mL | 1.98 µg/mL | 0.326 µg/mL | 0.27 µg/mL | 0.39 µg/mL | 0.31 µg/mL | 0.612 µg/mL | 2.41 µg/mL | 1.18 µg/mL | 1.07 µg/mL | 0.114 µg/mL | 0.506 µg/mL |
